Results on one molecule are retold here after patent US20250237661A1 (MESO SCALE TECHNOLOGIES, published 2025).

The test deals with T1, angiotensin-converting enzyme 2 (ACE2), labeled with a detection label (human, UniProt Q9BYF1 18-740).
T1 construct: also called labeled ACE2
Put plainly: labeled ACE2 on immobilized Mixed Panel antigens, ECL.

T1 sequence (Q9BYF1 18-740 limits assumed): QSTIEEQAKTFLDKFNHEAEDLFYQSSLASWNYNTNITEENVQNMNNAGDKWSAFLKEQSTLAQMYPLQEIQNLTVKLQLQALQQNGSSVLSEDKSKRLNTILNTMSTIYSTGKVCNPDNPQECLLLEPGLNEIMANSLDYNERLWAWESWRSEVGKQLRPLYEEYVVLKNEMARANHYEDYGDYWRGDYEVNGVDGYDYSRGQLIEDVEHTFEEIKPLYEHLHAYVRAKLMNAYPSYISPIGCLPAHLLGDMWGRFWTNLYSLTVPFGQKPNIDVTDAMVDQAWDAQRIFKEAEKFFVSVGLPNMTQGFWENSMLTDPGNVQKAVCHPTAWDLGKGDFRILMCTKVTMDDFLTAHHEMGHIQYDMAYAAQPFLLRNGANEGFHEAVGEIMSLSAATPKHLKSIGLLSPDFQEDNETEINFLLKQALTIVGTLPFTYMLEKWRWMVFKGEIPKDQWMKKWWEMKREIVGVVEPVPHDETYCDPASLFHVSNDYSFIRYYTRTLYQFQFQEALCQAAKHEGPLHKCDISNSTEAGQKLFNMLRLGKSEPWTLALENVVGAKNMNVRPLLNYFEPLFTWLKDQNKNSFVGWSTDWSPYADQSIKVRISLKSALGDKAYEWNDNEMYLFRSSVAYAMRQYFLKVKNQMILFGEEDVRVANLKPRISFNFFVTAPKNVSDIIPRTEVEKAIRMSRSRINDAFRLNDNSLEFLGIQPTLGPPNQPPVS

B1: HCoV-OC43 S protein (other)
chain: AVIGDLKCTSDNINDKDTGPPPISTDTVDVTNGLGTYYVLDRVYLNTTLFLNGYYPTSGSTYRNMALKGSVLLSRLWFKPPFLSDFINGIFAKVKNTKVIKDRVMYSEFPAITIGSTFVNTSYSVVVQPRTINSTQDGDNKLQGLLEVSVCQYNMCEYPQTICHPNLGNHRKELWHLDTGVVSCLYKRNFTYDVNADYLYFHFYQEGGTFYAYFTDTGVVTKFLFNVYLGMALSHYYVMPLTCNSKLTLEYWVTPLTSRQYLLAFNQDGIIFNAEDCMSDFMSEIKCKTQSIAPPTGVYELNGYTVQPIADVYRRKPNLPNCNIEAWLNDKSVPSPLNWERKTFSNCNFNMSSLMSFIQADSFTCNNIDAAKIYGMCFSSITIDKFAIPNGRKVDLQLGNLGYLQSFNYRIDTTATSCQLYYNLPAANVSVSRFNPSTWNKRFGFIEDSVFKPRPAGVLTNHDVVYAQHCFKAPKNFCPCKLNGSCVGSGPGKNNGIGTCPAGTNYLTCDNLCTPDPITFTGTYKCPQTKSLVGIGEHCSGLAVKSDYCGGNSCTCRPQAFLGWSADSCLQGDKCNIFANFILHDVNSGLTCSTDLQKANTDIILGVCVNYDLYGILGQGIFVEVNATYYNSWQNLLYDSNGNLYGFRDYIINRTFMIRSCYSGRVSAAFHANSSEPALLFRNIKCNYVFNNSLTRQLQPINYFDSYLGCVVNAYNSTAISVQTCDLTVGSGYCVDYSKNRRSRGAITTGYRFTNFEPFTVNSVNDSLEPVGGLYEIQIPSEFTIGNMVEFIQTSSPKVTIDCAAFVCGDYAACKSQLVEYGSFCDNINAILTEVNELLDTTQLQVANSLMNGVTLSTKLKDGVNFNVDDINFSPVLGCLGSECSKASSRSAIEDLLFDKVKLSDVGFVEAYNNCTGGAEIRDLICVQSYKGIKVLPPLLSENQISGYTLAATSASLFPPWTAAAGVPFYLNVQYRINGLGVTMDVLSQNQKLIANAFNNALYAIQEGFDATNSALVKIQAVVNANAEALNNLLQQLSNRFGAISASLQEILSRLDALEAEAQIDRLINGRLTALNAYVSQQLSDSTLVKFSAAQAMEKVNECVKSQSSRINFCGNGNHIISLVQNAPYGLYFIHFSYVPTKYVTARVSPGLCIAGDRGIAPKSGYFVNVNNTWMYTGSGYYYPEPITENNVVVMSTCAVNYTKAPYVMLNTSIPNLPDFKEELDQWFKNQTSVAPDLSLDYINVTFLDLQVEMNRLQEAIKVLNQSYINLKDIGTYEYYVKWP
Turning to B1, the binding result is given as “no binding”.
